From doi:10.1101/2021.05.06.442885

Molecular target: human Xkr8 (hXkr8), from hXkr8-TH-mGFP after TEV cleavage (human) (UniProt Q9H6D3)
Experiment: cryo-EM structure

Chain of UniProt Q9H6D3 (Q9H6D3 whole entry): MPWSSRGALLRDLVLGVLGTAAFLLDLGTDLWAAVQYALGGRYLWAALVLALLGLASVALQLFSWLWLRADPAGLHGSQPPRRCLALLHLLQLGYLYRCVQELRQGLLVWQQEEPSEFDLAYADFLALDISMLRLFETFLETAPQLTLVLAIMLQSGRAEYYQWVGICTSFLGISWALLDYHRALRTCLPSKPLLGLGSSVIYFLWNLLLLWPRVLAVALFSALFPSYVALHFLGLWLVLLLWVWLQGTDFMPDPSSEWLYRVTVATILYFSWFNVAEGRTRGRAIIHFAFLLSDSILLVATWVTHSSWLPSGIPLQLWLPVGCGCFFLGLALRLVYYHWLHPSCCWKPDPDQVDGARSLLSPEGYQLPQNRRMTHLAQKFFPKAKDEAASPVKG

Substance: hBSGΔ (human basigin lacking Ig-like domain 1, N152Q/N186Q, C-terminal FLAG) (domain or fragment)
- stoichiometry N: 1
